In paper PMC11927390:
Each block holds one substance with its values, some of them ahead of it.

Tests used:
[1] = target: recombinant soluble ULBP6-02 (human) (UniProt Q5VY80)
[2] = target: FcγRIIIa on the effector cells of the Promega ADCC Reporter Bioassay (human) (UniProt P08637)
[3] = target: human FcγRIIa-H167, biotinylated (human) (UniProt P12318); experiment: SPR; Biacore, 37°C; biotinylated FcγRs captured on Series S Sensor Chip CAP; threefold serial dilutions of the anti-ULBP6/2/5 antibodies injected at 30 μL/minute; HBS-P
[4] = target: human FcγRI, biotinylated (human) (UniProt P12314); experiment: as above
[5] = target: human FcγRIIIa-V176, biotinylated (human) (UniProt P08637); experiment: as above
[6] = target: human FcγRIIa-R167, biotinylated (human) (UniProt P12318); experiment: as above
[7] = target: human FcγRIIb, biotinylated (human) (UniProt P31994); experiment: as above
[8] = target: human FcγRIIIa-F176, biotinylated (human) (UniProt P08637); experiment: as above
[9] = target: recombinant soluble ULBP6-02 (human) (UniProt Q5VY80); remark: listed apart in the source
human NKG2D Fc (human) = human NKG2D Fc (human) (UniProt P26718); experiment: SPR; Biacore 8K or 8K+, 37°C; NKG2D Fc captured (Protein A chip as told for human NKG2D-Fc), ULBP6 as analyte in HBS-P (0.01 mol/L HEPES pH 7.4, 0.15 mol/L NaCl, 0.005% P20); kinetic or steady-state fit not given
murine NKG2D Fc (murine) = murine NKG2D Fc (murine) (UniProt O54709); experiment: as above
Chain of murine NKG2D Fc (murine) (O54709 90-232): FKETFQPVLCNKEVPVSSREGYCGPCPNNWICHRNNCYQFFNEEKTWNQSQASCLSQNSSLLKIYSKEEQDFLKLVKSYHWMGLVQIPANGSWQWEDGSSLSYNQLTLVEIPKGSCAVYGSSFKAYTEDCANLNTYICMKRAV

Chain of human FcγRIIa-R167, biotinylated (human) (P12318 34-317 H167R): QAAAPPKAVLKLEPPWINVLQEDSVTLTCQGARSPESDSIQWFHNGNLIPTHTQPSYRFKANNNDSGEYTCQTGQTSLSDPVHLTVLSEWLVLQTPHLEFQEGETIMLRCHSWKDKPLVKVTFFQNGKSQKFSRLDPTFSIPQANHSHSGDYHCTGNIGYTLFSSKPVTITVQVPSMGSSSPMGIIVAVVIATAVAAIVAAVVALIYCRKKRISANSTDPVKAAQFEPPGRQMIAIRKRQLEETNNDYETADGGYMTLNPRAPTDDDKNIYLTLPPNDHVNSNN
Chain of human FcγRIIIa-V176, biotinylated (human) (P08637 17-254 F176V): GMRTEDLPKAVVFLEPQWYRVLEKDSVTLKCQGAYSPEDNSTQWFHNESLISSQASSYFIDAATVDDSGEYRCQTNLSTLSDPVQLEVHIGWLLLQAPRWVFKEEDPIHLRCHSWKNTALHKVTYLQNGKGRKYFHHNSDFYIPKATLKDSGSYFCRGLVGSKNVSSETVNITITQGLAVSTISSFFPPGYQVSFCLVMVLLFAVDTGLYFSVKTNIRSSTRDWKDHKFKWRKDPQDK
Chain of human FcγRIIIa-F176, biotinylated (human) (P08637 17-254): as the sequence (P08637 17-254 F176V) above, with V160F counted along it
Chain of FcγRIIIa on the effector cells of the Promega ADCC Reporter Bioassay (human) (P08637 17-254): as the sequence (P08637 17-254 F176V) above, with V160F counted along it
Chain of human FcγRI, biotinylated (human) (P12314 16-374): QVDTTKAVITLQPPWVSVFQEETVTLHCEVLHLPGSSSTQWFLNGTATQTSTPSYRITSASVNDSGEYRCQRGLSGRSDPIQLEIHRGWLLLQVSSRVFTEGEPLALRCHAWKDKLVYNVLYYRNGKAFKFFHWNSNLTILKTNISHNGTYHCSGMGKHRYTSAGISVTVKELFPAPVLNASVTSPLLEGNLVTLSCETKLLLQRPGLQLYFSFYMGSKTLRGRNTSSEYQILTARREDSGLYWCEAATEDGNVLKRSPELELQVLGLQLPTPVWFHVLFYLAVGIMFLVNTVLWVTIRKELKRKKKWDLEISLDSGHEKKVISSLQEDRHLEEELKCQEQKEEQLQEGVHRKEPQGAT
Chain of human FcγRIIa-H167, biotinylated (human) (P12318 34-317): as the sequence (P12318 34-317 H167R) above, with R134H counted along it
Chain of human FcγRIIb, biotinylated (human) (P31994 43-310): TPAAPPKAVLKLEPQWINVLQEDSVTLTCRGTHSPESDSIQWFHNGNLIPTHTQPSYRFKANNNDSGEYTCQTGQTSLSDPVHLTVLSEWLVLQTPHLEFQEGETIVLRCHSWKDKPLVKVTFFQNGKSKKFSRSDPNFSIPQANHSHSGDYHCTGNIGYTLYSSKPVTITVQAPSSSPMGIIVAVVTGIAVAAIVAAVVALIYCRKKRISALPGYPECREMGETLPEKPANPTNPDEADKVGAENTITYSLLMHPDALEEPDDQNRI
Chain of human NKG2D Fc (human) (P26718 73-216): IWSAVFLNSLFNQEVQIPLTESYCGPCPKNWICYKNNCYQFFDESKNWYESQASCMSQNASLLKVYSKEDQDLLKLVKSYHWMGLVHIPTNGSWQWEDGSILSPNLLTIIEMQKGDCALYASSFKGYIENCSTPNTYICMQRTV

IC50 (so in the source) of IFNγ secretion by IL-2/IL-15-primed PBMCs cocultured with COV644 cells and 50 nmol/L sULBP6-02, 0.05-200 nmol/L 23ME-01473, donor d1213; pair blocked: sULBP6-02 and NKG2D [1]: 21.5 nM
IC50 (so in the source) of IFNγ secretion by IL-2/IL-15-primed PBMCs cocultured with COV644 cells and 50 nmol/L sULBP6-02, 0.05-200 nmol/L 23ME-01473, donor d1802; pair blocked: sULBP6-02 and NKG2D [1]: 25.5 nM
IC50 (so in the source) of IFNγ secretion by IL-2/IL-15-primed PBMCs cocultured with COV644 cells and 50 nmol/L sULBP6-02, 0.05-200 nmol/L 23ME-01473, donor d3761; pair blocked: sULBP6-02 and NKG2D [1]: 13.6 nM
IC50 (so in the source) of IFNγ secretion by IL-2/IL-15-primed PBMCs cocultured with COV644 cells and 50 nmol/L sULBP6-02, 0.05-200 nmol/L 23ME-01473, donor d33936; pair blocked: sULBP6-02 and NKG2D [1]: 25.6 nM
EC50 of FcγRIIIa activation (RLU), Promega ADCC reporter assay with luciferase effector cells and COV644 target cells, 0.0001 to 10 nmol/L antibody [2]: 0.0532 nM
Kd [3]: 270 nM
Kd [4]: 0.92 nM
Kd [5]: 6.74 nM
Kd [6]: 406 nM
Kd [7]: 2230 nM
Kd [8]: 25.5 nM
Substance: 23ME-01473, humanized Fc effector-enhanced (afucosylated) anti-ULBP6/2/5 antibody

IC50 (so in the source) of the rescue of IFNγ production by PBMCs cocultured with COV644 cells in the presence of sULBP6, donor d1212; pair blocked: sULBP6-02 and NKG2D [9]: 26 nM
IC50 (so in the source) of the rescue of IFNγ production by PBMCs cocultured with COV644 cells in the presence of sULBP6, donor d1939; pair blocked: sULBP6-02 and NKG2D [9]: 10.6 nM
IC50 (so in the source) of the rescue of IFNγ production by PBMCs cocultured with COV644 cells in the presence of sULBP6, donor d33936; pair blocked: sULBP6-02 and NKG2D [9]: 16.5 nM
Substance: Fc-Att-anti-ULBP6/2/5, effector-attenuated (N297G) version of 23ME-01473 (antibody)

Kd (human NKG2D Fc (human)): 0.8 nM
Kd (murine NKG2D Fc (murine)): 0.64 nM
Substance: human ULBP6 (analyte of Supplementary Table S6) (from UniProt Q5VY80 26-218) (ligand)
